Laboratory results reported in publication PMC8298264, “Function of cofactor Akirin2 in the regulation of gene expression in model human neutrophil-like HL60 cells” (Bioscience Reports, 2021).

System: human HL60 cells
Test: SWATH-MS proteomics, differential protein representation, akirin2 KO vs WT HL60 cells
Assay type: cell-based
Settings: akirin2 KO vs WT HL60 cells
Procedure, shortened: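 First, proteins from wild-type and knockout cells are digested with trypsin by FASP. Next, pooled IDA runs generate a reference ion library. Then six samples of 5 µg each are acquired by data-independent SWATH, and protein areas are normalized to the summed area of all detected proteins.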

[1] = SWATH-MS, over-represented in KO

B1: Cystatin-F (protein, UniProt O76096 20-145, looked up)
Cystatin-F: GPSPDTCSQDLNSRVKPGFPKTIKTNDPGVLQAARYSVEKFNNCTNDMFLFKESRITRALVQIVKGLKYMLEVEIGRTTCKKNQHLRLDDCDFQTNHTLKQTLSCYSEVWVVPWLQHFEVPVLRCH
Fold Change [1]: 2.6697
Log (Fold Change) [1]: 0.4265

B2: sp¦Q14019¦COTL1_HUMAN (protein, UniProt Q14019 2-142, looked up)
Coactosin-like protein: ATKIDKEACRAAYNLVRDDGSAVIWVTFKYDGSTIVPGEQGAEYQHFIQQCTDDVRLFAFVRFTTGDAMSKRSKFALITWIGENVSGLQRAKTGTDKTLVKEVVQNFAKEFVISDRKELEEDFIKSELKKAGGANYDAQTE
Fold Change (sheet "Over-represented in KO"): 1.126
Log (Fold Change) (sheet "Over-represented in KO"): 0.0517

B3: sp¦Q92945¦FUBP2_HUMAN (protein, UniProt Q92945 2-711, looked up)
Far upstream element-binding …: SDYSTGGPPPGPPPPAGGGGGAGGAGGGPPPGPPGAGDRGGGGPGGGGPGGGSAGGPSQPPGGGGPGIRKDAFADAVQRARQIAAKIGGDAATTVNNSTPDFGFGGQKRQLEDGDQPESKKLASQGDSISSQLGPIHPPPRTSMTEEYRVPDGMVGLIIGRGGEQINKIQQDSGCKVQISPDSGGLPERSVSLTGAPESVQKAKMMLDDIVSRGRGGPPGQFHDNANGGQNGTVQEIMIPAGKAGLVIGKGGETIKQLQERAGVKMILIQDGSQNTNVDKPLRIIGDPYKVQQACEMVMDILRERDQGGFGDRNEYGSRIGGGIDVPVPRHSVGVVIGRSGEMIKKIQNDAGVRIQFKQDDGTGPEKIAHIMGPPDRCEHAARIINDLLQSLRSGPPGPPGGPGMPPGGRGRGRGQGNWGPPGGEMTFSIPTHKCGLVIGRGGENVKAINQQTGAFVEISRQLPPNGDPNFKLFIIRGSPQQIDHAKQLIEEKIEGPLCPVGPGPGGPGPAGPMGPFNPGPFNQGPPGAPPHAGGPPPHQYPPQGWGNTYPQWQPPAPHDPSKAAAAAADPNAAWAAYYSHYYQQPPGPVPGPAPAPAAPPAQGEPPQPPPTGQSDYTKAWEEYYKKIGQQPQQPGAPPQQDYTKAWEEYYKKQAQVATGGGPGAPPGSQPDYSAAWAEYYRQQAAYYGQTPGPGGPQPPPTQQGQQQAQ
Fold Change (sheet "Over-represented in KO"): 1.125
Log (Fold Change) (sheet "Over-represented in KO"): 0.05126

B4: sp¦Q13177¦PAK2_HUMAN (protein, UniProt Q13177 2-524, looked up)
Serine/threonine-protein …: SDNGELEDKPPAPPVRMSSTIFSTGGKDPLSANHSLKPLPSVPEEKKPRHKIISIFSGTEKGSKKKEKERPEISPPSDFEHTIHVGFDAVTGEFTGMPEQWARLLQTSNITKLEQKKNPQAVLDVLKFYDSNTVKQKYLSFTPPEKDGFPSGTPALNAKGTEAPAVVTEEEDDDEETAPPVIAPRPDHTKSIYTRSVIDPVPAPVGDSHVDGAAKSLDKQKKKTKMTDEEIMEKLRTIVSIGDPKKKYTRYEKIGQGASGTVFTATDVALGQEVAIKQINLQKQPKKELIINEILVMKELKNPNIVNFLDSYLVGDELFVVMEYLAGGSLTDVVTETCMDEAQIAAVCRECLQALEFLHANQVIHRDIKSDNVLLGMEGSVKLTDFGFCAQITPEQSKRSTMVGTPYWMAPEVVTRKAYGPKVDIWSLGIMAIEMVEGEPPYLNENPLRALYLIATNGTPELQNPEKLSPIFRDFLNRCLEMDVEKRGSAKELLQHPFLKLAKPLSSLTPLIMAAKEAMKSNR
Fold Change (sheet "Over-represented in KO"): 1.114
Log (Fold Change) (sheet "Over-represented in KO"): 0.04699

B5: Azurocidin (protein, UniProt P20160 27-248, looked up)
Azurocidin: IVGGRKARPRQFPFLASIQNQGRHFCGGALIHARFVMTAASCFQSQNPGVSTVVLGAYDLRRRERQSRQTFSISSMSENGYDPQQNLNDLMLLQLDREANLTSSVTILPLPLQNATVEAGTRCQVAGWGSQRSGGRLSRFPRFVNVTVTPEDQCRPNNVCTGVLTRRGGICNGDGGTPLVCEGLAHGVASFSLGPCGRGPDFFTRVALFRDWIDGVLNNPGP
Fold Change [1]: 2.563
Log (Fold Change) [1]: 0.4087

B6: sp¦Q99436¦PSB7_HUMAN (protein, UniProt Q99436 44-277, looked up)
Proteasome subunit beta type-7: TTIAGVVYKDGIVLGADTRATEGMVVADKNCSKIHFISPNIYCCGAGTAADTDMTTQLISSNLELHSLSTGRLPRVVTANRMLKQMLFRYQGYIGAALVLGGVDVTGPHLYSIYPHGSTDKLPYVTMGSGSLAAMAVFEDKFRPDMEEEEAKNLVSEAIAAGIFNDLGSGSNIDLCVISKNKLDFLRPYTVPNKKGTRLGRYRCEKGTTAVLTEKITPLEIEVLEETVQTMDTS
Fold Change (sheet "Over-represented in KO"): 1.138
Log (Fold Change) (sheet "Over-represented in KO"): 0.056

B7: Spartin (protein, UniProt Q8N0X7 1-666, looked up)
Spartin: MEQEPQNGEPAEIKIIREAYKKAFLFVNKGLNTDELGQKEEAKNYYKQGIGHLLRGISISSKESEHTGPGWESARQMQQKMKETLQNVRTRLEILEKGLATSLQNDLQEVPKLYPEFPPKDMCEKLPEPQSFSSAPQHAEVNGNTSTPSAGAVAAPASLSLPSQSCPAEAPPAYTPQAAEGHYTVSYGTDSGEFSSVGEEFYRNHSQPPPLETLGLDADELILIPNGVQIFFVNPAGEVSAPSYPGYLRIVRFLDNSLDTVLNRPPGFLQVCDWLYPLVPDRSPVLKCTAGAYMFPDTMLQAAGCFVGVVLSSELPEDDRELFEDLLRQMSDLRLQANWNRAEEENEFQIPGRTRPSSDQLKEASGTDVKQLDQGNKDVRHKGKRGKRAKDTSSEEVNLSHIVPCEPVPEEKPKELPEWSEKVAHNILSGASWVSWGLVKGAEITGKAIQKGASKLRERIQPEEKPVEVSPAVTKGLYIAKQATGGAAKVSQFLVDGVCTVANCVGKELAPHVKKHGSKLVPESLKKDKDGKSPLDGAMVVAASSVQGFSTVWQGLECAAKCIVNNVSAETVQTVRYKYGYNAGEATHHAVDSAVNVGVTAYNINNIGIKAMVKKTATQTGHTLLEDYQIVDNSQRENQEGAANVNVRGEKDEQTKEVKEAKKKDK
Fold Change [1]: 2.789
Log (Fold Change) [1]: 0.4455

B8: sp¦Q92900¦RENT1_HUMAN (protein, UniProt Q92900 1-1129, looked up)
Regulator of nonsense …: MSVEAYGPSSQTLTFLDTEEAELLGADTQGSEFEFTDFTLPSQTQTPPGGPGGPGGGGAGGPGGAGAGAAAGQLDAQVGPEGILQNGAVDDSVAKTSQLLAELNFEEDEEDTYYTKDLPIHACSYCGIHDPACVVYCNTSKKWFCNGRGNTSGSHIVNHLVRAKCKEVTLHKDGPLGETVLECYNCGCRNVFLLGFIPAKADSVVVLLCRQPCASQSSLKDINWDSSQWQPLIQDRCFLSWLVKIPSEQEQLRARQITAQQINKLEELWKENPSATLEDLEKPGVDEEPQHVLLRYEDAYQYQNIFGPLVKLEADYDKKLKESQTQDNITVRWDLGLNKKRIAYFTLPKTDSGNEDLVIIWLRDMRLMQGDEICLRYKGDLAPLWKGIGHVIKVPDNYGDEIAIELRSSVGAPVEVTHNFQVDFVWKSTSFDRMQSALKTFAVDETSVSGYIYHKLLGHEVEDVIIKCQLPKRFTAQGLPDLNHSQVYAVKTVLQRPLSLIQGPPGTGKTVTSATIVYHLARQGNGPVLVCAPSNIAVDQLTEKIHQTGLKVVRLCAKSREAIDSPVSFLALHNQIRNMDSMPELQKLQQLKDETGELSSADEKRYRALKRTAERELLMNADVICCTCVGAGDPRLAKMQFRSILIDESTQATEPECMVPVVLGAKQLILVGDHCQLGPVVMCKKAAKAGLSQSLFERLVVLGIRPIRLQVQYRMHPALSAFPSNIFYEGSLQNGVTAADRVKKGFDFQWPQPDKPMFFYVTQGQEEIASSGTSYLNRTEAANVEKITTKLLKAGAKPDQIGIITPYEGQRSYLVQYMQFSGSLHTKLYQEVEIASVDAFQGREKDFIILSCVRANEHQGIGFLNDPRRLNVALTRARYGVIIVGNPKALSKQPLWNHLLNYYKEQKVLVEGPLNNLRESLMQFSKPRKLVNTINPGARFMTTAMYDAREAIIPGSVYDRSSQGRPSSMYFQTHDQIGMISAGPSHVAAMNIPIPFNLVMPPMPPPGYFGQANGPAAGRGTPKGKTGRGGRQKNRFGLPGPSQTNLPNSQASQDVASQPFSQGALTQGYISMSQPSQMSQPGLSQPELSQDSYLGDEFKSQIDVALSQDSTYQGERAYQHGGVTGLSQY
Fold Change (sheet "Over-represented in KO"): 1.105
Log (Fold Change) (sheet "Over-represented in KO"): 0.04317

B9: sp¦P11766¦ADHX_HUMAN (protein, UniProt P11766 2-374, looked up)
Alcohol dehydrogenase class-3: ANEVIKCKAAVAWEAGKPLSIEEIEVAPPKAHEVRIKIIATAVCHTDAYTLSGADPEGCFPVILGHEGAGIVESVGEGVTKLKAGDTVIPLYIPQCGECKFCLNPKTNLCQKIRVTQGKGLMPDGTSRFTCKGKTILHYMGTSTFSEYTVVADISVAKIDPLAPLDKVCLLGCGISTGYGAAVNTAKLEPGSVCAVFGLGGVGLAVIMGCKVAGASRIIGVDINKDKFARAKEFGATECINPQDFSKPIQEVLIEMTDGGVDYSFECIGNVKVMRAALEACHKGWGVSVVVGVAASGEEIATRPFQLVTGRTWKGTAFGGWKSVESVPKLVSEYMSKKIKVDEFVTHNLSFDEINKAFELMHSGKSIRTVVKI
Fold Change (sheet "Over-represented in KO"): 1.096
Log (Fold Change) (sheet "Over-represented in KO"): 0.03978

B10: Non-secretory ribonuclease (protein, UniProt P10153 28-161, looked up)
Non-secretory ribonuclease: KPPQFTWAQWFETQHINMTSQQCTNAMQVINNYQRRCKNQNTFLLTTFANVVNVCGNPNMTCPSNKTRKNCHHSGSQVPLIHCNLTTPSPQNISNCRYAQTPANMFYIVACDNRDQRRDPPQYPVVPVHLDRII
Fold Change [1]: 2.742
Log (Fold Change) [1]: 0.4381

B11: sp¦P29218¦IMPA1_HUMAN (protein, UniProt P29218 1-277, looked up)
Inositol monophosphatase 1: MADPWQECMDYAVTLARQAGEVVCEAIKNEMNVMLKSSPVDLVTATDQKVEKMLISSIKEKYPSHSFIGEESVAAGEKSILTDNPTWIIDPIDGTTNFVHRFPFVAVSIGFAVNKKIEFGVVYSCVEGKMYTARKGKGAFCNGQKLQVSQQEDITKSLLVTELGSSRTPETVRMVLSNMEKLFCIPVHGIRSVGTAAVNMCLVATGGADAYYEMGIHCWDVAGAGIIVTEAGGVLMDVTGGPFDLMSRRVIAANNRILAERIAKEIQVIPLQRDDED
Fold Change (sheet "Over-represented in KO"): 1.12
Log (Fold Change) (sheet "Over-represented in KO"): 0.04931

B12: Serglycin (protein, UniProt P10124 28-158, looked up)
Serglycin: YPTRRARYQWVRCNPDSNSANCLEEKGPMFELLPGESNKIPRLRTDLFPKTRIQDLNRIFPLSEDYSGSGFGSGSGSGSGSGSGFLTEMEQDYQLVDESDAFHDNLRSLDRNLPSDSQDLGQHGLEEDFML
Fold Change [1]: 2.81
Log (Fold Change) [1]: 0.4488

B13: Protein Churchill (protein, UniProt Q8WUH1 1-112, looked up)
Protein Churchill: MCGDCVEKEYPNRGNTCLENGSFLLNFTGCAVCSKRDFMLITNKSLKEEDGEEIVTYDHLCKNCHHVIARHEYTFSIMDEFQEYTMLCLLCGKAEDTISILPDDPRQMTLLF
Fold Change [1]: 2.847
Log (Fold Change) [1]: 0.4544
